Source: PMC13071878, “Yeast Display Technology Enables Rapid Discovery of Low-Nanomolar Macrocyclic Peptide Inhibitors of Human Angiotensin-Converting Enzyme 2” (Journal of Medicinal Chemistry, 2026)
Where two headings read alike, the source gives them in different places.

How the values were obtained:
hACE2 [1] = target: T1, hACE2 (Homo sapiens, UniProt Q9BYF1); assay: Isothermal titration calorimetry of synthetic MPs with hACE2; assay type: binding; conditions: 25 °C
Experimental: Isothermal titration calorimetry (ITC) experiments were performed at 25 °C using a MicroCal iTC200 instrument ([…], Malvern Panalytical, Malvern, UK). The hACE2 protein (initial stock 11 mg/mL, 20 mM Tris pH 7.4, 200 mM NaCl) was diluted into the assay buffer (100 mM Tris pH 7.4, 200 mM NaCl) to a final concentration of 5 μM. […] Titrations consisted of an initial 0.4 μL injection (excluded from subsequent data analysis), followed by 18 injections of 2 μL each, with a stirring rate of 750 rpm to ensure rapid mixing. A 120 s interval was maintained between injections to ensure the baseline returned to equilibrium. Blank experiments involving the titration of the synthetic MPs into the assay buffer were performed to determine and subtract the heats of dilution. Data processing was conducted using the Origin software package version 7 (OriginLab Corporation, Northampton, MA, USA). The integrated heat signals were fitted to a single-site binding model to determine the association constant (K A), the dissociation constant ([…]), the enthalpy change (ΔH), and the binding stoichiometry (n). The Gibbs free energy (ΔG) and the entropy change (ΔS) were calculated using the standard thermodynamic relationship: ΔG=ΔH−TΔS=−RTln(KA)

hACE1 = target: T2, hACE1 (Homo sapiens, UniProt P12821); assay: biochemical
T2 construct: purchased R&D Systems
Experimental: The activity assay was performed by incubating 0.25 nM of hACE2 with 50 μM fluorogenic substrate Mca-Ala-Pro-Lys­(Dnp)–OH (MedChemExpress, Monmouth Junction, NJ, USA) and 3-fold MP dilutions (ranging from 0.03 nM to 100 μM). […] All reagents were diluted in 10 mM Tris–HCl, pH 7.4, 300 mM NaCl, 100 μM ZnCl2, 0.1% w/v BSA, and 0.1% v/v DMSO assay buffer. The measurements were performed on a Berthold TriStar LB 941 microplate reader (Berthold Technologies, Bad Wildbad, Germany) using flat-bottom 96-well half area Corning Costar plates (Corning, New York, USA). The enzymatic reactions were performed at 25 °C for 90 min, under shaking with a maximum excitation wavelength (λex) of 320 nm and maximum emission wavelength (λem) of 405 nm. The initial velocities were monitored as changes in fluorescence intensity. Half-maximum inhibitory concentration (IC50) values were determined using GraphPad Prism v8.2.1 software (GraphPad software Inc., San Diego, CA, USA). […] Reactions were initiated by adding hACE2 (final concentration 0.25 nM) to the fluorogenic substrate in assay buffer at 25 °C. Fluorescence was recorded as described earlier (λex = 320 nm, λem = 405 nm) using a Berthold TriStar LB 941 microplate reader (Berthold Technologies, Bad Wildbad, Germany). Initial velocities (V 0) were plotted against substrate concentrations [S] and analyzed via nonlinear regression using a one-site specific binding model using GraphPad Prism v8.2.1 software (GraphPad software Inc., San Diego, CA, USA). […] All reagents were diluted in 10 mM Tris-HCl, pH 7.4, 300 mM NaCl, 100 μM ZnCl2, 0.1% w/v BSA, and 0.1% v/v DMSO buffer. Measurements and data analysis were performed as mentioned above.

[2] = Plasma stability of synthetic peptides (LC-MS); conditions: human, plasma, plasma half-life t1/2, human plasma, 37 °C, 10 μM, LC-MS, n = 2
Experimental: The mixtures were incubated at 37 °C in a water bath (VWR, Pennsylvania, PA, USA). At designated time points (0, 0.25, 0.5, 1, 2, 4, 8, 24, and 48 h), 100 μL aliquots were withdrawn and quenched with 100 μL of 100% v/v ACN. Following centrifugation (10 min at 15000 g, 4 °C), 100 μL of the supernatant was collected and diluted with 50 μL of solvent A (99.9% v/v H2O and 0.1% v/v FA). Samples were characterized by LC–MS using an Agilent 1260 Infinity II LC system coupled to an InfinityLab LC/MSD mass spectrometer (Agilent Technologies, Santa Clara, CA, USA). The system operated with a standard ESI source in negative ionization mode. Separation was performed on a reversed-phase Symmetry C18 column (5 μm, 150 mm × 4.6 mm, Waters, Milford, MA, USA) using a linear gradient of 10–100% solvent B over 22 min at a flow rate of 0.6 mL/min (Solvent A: 99.9% v/v H2O and 0.1% v/v FA; Solvent B: 99.9% v/v ACN and 0.1% v/v FA). Data acquisition, processing, and analysis were performed using MestReNova v.12.0.1 (Mestrelab Research, Santiago de Compostela, Spain). All samples were analyzed in duplicate (n = 2). The percentage of remaining peptide was calculated by integrating the peak areas, with the area at 0 h defined as 100%. Half-lives (t 1/2) were determined via nonlinear regression analysis using GraphPad Prism (GraphPad software Inc., San Diego, CA, USA). Data are presented as mean values ± s.d.

hACE2 [3] = target: T1, hACE2; set-up: method as in ref 3 (SI list; Bedding et al. 2024); conditions: mRNA display cyclic peptides, ref 3 (SI list; Bedding et al. 2024), cited from earlier work; for Ki: where not reported, calculated by Cheng-Prusoff, Km 23 μM
hACE2 [4] = target: T1, hACE2; set-up: method as in ref 3 (SI list; Bedding et al. 2024); conditions: mRNA display cyclic peptides; ref 3 (SI list; Bedding et al. 2024); cited from earlier work
hACE2 [5] = target: T1, hACE2; set-up: method as in ref 2 (SI list; Harman et al. 2023); conditions: phage display bicyclic peptides, ref 2 (SI list; Harman et al. 2023), cited from earlier work
hACE2 [6] = target: T1, hACE2; set-up: method as in ref 2 (SI list; Harman et al. 2023); conditions: phage display bicyclic peptides; ref 2 (SI list; Harman et al. 2023); cited from earlier work
hACE2 [7] = target: T1, hACE2; set-up: method as in ref 4 (SI list; Huang et al. 2003); conditions: phage display DX peptides, ref 4 (SI list; Huang et al. 2003), cited from earlier work; for Ki: where not reported, calculated by Cheng-Prusoff, Km 23 μM
hACE2 [8] = target: T1, hACE2; set-up: method as in ref 4 (SI list; Huang et al. 2003); conditions: phage display DX peptides; ref 4 (SI list; Huang et al. 2003); cited from earlier work
hACE2 [9] = target: T1, hACE2; assay type: binding; conditions: yeast-displayed MP, serial dilutions of biotinylated hACE2

T2 sequence (P12821 30-1306): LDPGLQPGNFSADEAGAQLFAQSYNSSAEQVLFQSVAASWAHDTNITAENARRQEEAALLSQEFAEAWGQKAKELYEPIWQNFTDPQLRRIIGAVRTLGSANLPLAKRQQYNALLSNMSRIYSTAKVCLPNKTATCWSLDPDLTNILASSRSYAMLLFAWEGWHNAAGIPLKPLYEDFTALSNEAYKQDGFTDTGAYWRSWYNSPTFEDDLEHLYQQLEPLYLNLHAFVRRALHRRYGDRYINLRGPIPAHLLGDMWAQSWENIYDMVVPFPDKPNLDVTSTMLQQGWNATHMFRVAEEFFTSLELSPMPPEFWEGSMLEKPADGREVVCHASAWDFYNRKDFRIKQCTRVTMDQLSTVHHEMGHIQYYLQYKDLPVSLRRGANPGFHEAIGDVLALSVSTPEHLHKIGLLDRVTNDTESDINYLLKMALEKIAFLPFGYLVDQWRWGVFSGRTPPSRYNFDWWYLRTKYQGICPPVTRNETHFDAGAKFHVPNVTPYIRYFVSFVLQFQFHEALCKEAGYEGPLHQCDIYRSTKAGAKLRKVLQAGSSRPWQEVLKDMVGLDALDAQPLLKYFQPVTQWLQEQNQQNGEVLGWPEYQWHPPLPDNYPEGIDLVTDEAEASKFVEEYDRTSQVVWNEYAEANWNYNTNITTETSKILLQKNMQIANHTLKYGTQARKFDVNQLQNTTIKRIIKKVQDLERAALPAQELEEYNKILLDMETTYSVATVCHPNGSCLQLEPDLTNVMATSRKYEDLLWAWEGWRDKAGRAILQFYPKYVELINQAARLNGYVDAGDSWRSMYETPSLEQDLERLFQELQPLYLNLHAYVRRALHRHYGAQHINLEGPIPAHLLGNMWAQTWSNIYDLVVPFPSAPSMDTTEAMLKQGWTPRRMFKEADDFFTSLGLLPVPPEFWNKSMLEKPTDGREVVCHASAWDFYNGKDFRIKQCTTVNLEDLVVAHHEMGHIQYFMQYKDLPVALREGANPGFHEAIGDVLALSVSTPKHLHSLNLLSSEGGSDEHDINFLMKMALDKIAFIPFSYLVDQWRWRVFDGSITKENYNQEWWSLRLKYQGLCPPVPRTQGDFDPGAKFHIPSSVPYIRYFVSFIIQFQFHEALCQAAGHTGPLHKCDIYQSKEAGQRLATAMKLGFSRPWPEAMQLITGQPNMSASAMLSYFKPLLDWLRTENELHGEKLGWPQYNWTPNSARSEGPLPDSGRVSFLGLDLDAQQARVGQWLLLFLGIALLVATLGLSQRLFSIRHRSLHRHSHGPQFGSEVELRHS
T1 sequence (Q9BYF1 19-615): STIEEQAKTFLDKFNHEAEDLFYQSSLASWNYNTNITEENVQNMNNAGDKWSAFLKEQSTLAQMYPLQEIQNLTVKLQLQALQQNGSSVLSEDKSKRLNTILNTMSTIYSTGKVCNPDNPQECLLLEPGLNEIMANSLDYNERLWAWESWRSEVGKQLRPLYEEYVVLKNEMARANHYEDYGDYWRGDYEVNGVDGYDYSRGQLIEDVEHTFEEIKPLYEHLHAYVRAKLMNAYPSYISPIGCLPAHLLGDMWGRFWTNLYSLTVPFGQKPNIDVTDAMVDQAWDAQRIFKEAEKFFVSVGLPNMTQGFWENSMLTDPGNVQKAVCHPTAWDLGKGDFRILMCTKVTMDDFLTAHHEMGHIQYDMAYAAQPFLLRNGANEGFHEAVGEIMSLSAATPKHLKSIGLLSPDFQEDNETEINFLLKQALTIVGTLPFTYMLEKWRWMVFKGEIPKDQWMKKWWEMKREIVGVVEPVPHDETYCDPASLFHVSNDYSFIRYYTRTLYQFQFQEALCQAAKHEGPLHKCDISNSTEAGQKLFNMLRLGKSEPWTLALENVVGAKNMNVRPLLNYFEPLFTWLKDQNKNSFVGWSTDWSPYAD

Molecule: CC(C)C[C@@H]1NC(=O)[C@H](CC(N)=O)NC(=O)[C@H](Cc2ccc(O)cc2)NC(=O)CNC(=O)[C@H](CC(C)C)NC(=O)[C@@H]2CCCN2C(=O)[C@H](CCC(=O)O)NC(=O)[C@@H](NC(=O)[C@H](C)N)CSSC[C@@H](C(=O)N[C@@H](CO)C(=O)NCC(N)=O)NC(=O)[C@H](CC(C)C)NC(=O)[C@H](Cc2ccccc2)NC1=O [GR1.4]
- ΔH (ITC) (hACE2 [1]): -33.5 ± 0.5 kJ/mol
- -TΔS (ITC) (hACE2 [1]; calculated): -8.1 kJ/mol
- IC50 (hACE1): > 100 µM
- Ki (hACE1): > 100 µM
- half-life [2]: 390 min

Molecule: Y*AVLLHKGKFVFTYGC [peptide12]
- IC50 (hACE2 [3]): 39.5 µM
- Ki (hACE2 [3]): 7390 nM
- Kd (hACE2 [4]): 610 nM

Molecule: y*VHIIYWKNGLPRITC [peptide14]
- IC50 (hACE2 [3]): 9.72 µM
- Ki (hACE2 [3]): 1820 nM
- Kd (hACE2 [4]): 82.3 nM

Molecule: ACGREELPCRIKLCA [BCY15298]
- IC50 (hACE2 [5]): > 40000 nM

Molecule: ACHKFPCRDPQQYLFCA [BCY15296]
- Kd (hACE2 [6]): 29 nM
- IC50 (hACE2 [5]): 47 nM
- Ki (hACE2 [5]; where not reported, calculated by Cheng-Prusoff, Km 23 μM): 21 nM

Molecule: GDGFTCSPIRMFPWFRCDLGDP [DX601]
- IC50 (hACE2 [7]): 56.8 nM
- Ki (hACE2 [7]): 30.9 nM
- Kd (hACE2 [8]): 56.3 nM

Molecule: GDRYLCLPQRDKPWKFCNWFDP [DX599]
- IC50 (hACE2 [7]): 114 nM
- Ki (hACE2 [7]): 46.5 nM
- Kd (hACE2 [8]): 48.6 nM

Molecule: GSRIGCRDSRCNWWAP [DX524]
- IC50 (hACE2 [7]): 600 nM
- Ki (hACE2 [7]): 540 nM

Molecule: ACEPLGFNRWICSG [GR1.3, yeast-encoded “one-ring” macrocyclic peptide, GR1 family]
- binding to hACE2 in yeast surface titration (in words) (hACE2 [9]): comparable binding affinities

Molecule: GDLHACRPVRGDPWWACTLGDP [DX513]
- IC50 (hACE2 [7]): 90 nM
- Ki (hACE2 [7]): 126 nM
- Kd (hACE2 [8]): 170 nM

Molecule: CC[C@H](C)[C@@H]1NC(=O)[C@H](Cc2ccccc2)NC(=O)[C@H](Cc2ccccc2)NC(=O)[C@@H](NC(=O)[C@H](C)N)CSSC[C@@H](C(=O)N[C@@H](CO)C(=O)NCC(N)=O)NC(=O)[C@H]([C@@H](C)CC)NC(=O)[C@H](Cc2c[nH]c3ccccc23)NC(=O)[C@H](CCCNC(=N)N)NC(=O)[C@H](CC(N)=O)NC(=O)[C@H](Cc2ccccc2)NC(=O)CNC1=O [GR1.1]
- IC50 (hACE1): > 100 µM
- Ki (hACE1): > 100 µM
- half-life [2]: 324 min

Molecule: Y*VFRSLRTPFIVC [peptide1]
- Kd (hACE2 [4]): 0.4 nM

Molecule: ACEPLAYNLFLCSG [GR1.7]
- binding to hACE2 in yeast surface titration (in words) (hACE2 [9]): completely abolished

Molecule: Y*WTLFVFRDGVLPVWSC [peptide9]
- IC50 (hACE2 [3]): 2.05 µM
- Ki (hACE2 [3]): 383 nM
- Kd (hACE2 [4]): 50.3 nM

Molecule: GDRLHCKPQRQSPWMKCQHLDP [DX512]
- IC50 (hACE2 [7]): 60 nM
- Ki (hACE2 [7]): 139 nM
- Kd (hACE2 [8]): 96 nM

Molecule: y*VVLRPLRDLGRVFC [peptide5]
- Kd (hACE2 [4]): 9 nM

Molecule: y*DAYTRRTHRNPRLCQC [peptide7]
- Kd (hACE2 [4]): 32 nM

Molecule: y*FNRSGKLLFLYC [peptide4]
- Kd (hACE2 [4]): 240 nM

Molecule: GDFSPCKALRHSPWWVCPSGDP [DX602]
- IC50 (hACE2 [7]): 128 nM
- Ki (hACE2 [7]): 121 nM
- Kd (hACE2 [8]): 74.4 nM

Molecule: ACEPAGYNLFLCSG [GR1.6]
- binding to hACE2 in yeast surface titration (in words) (hACE2 [9]): completely abolished

Molecule: AGSDWCGTWNNPCFHQGT [DX531]
- IC50 (hACE2 [7]): 500 nM
- Ki (hACE2 [7]): 540 nM
